Experimental data published in paper PMC12753239.

Legend:
[1] = molecular target: zebrafish Ngly2 (amino acids: 45-663) (zebrafish (Danio rerio)); test: SEC; gel filtration at pH 8.0; Superdex200 increase 10/300 GL, 20 mM Tris-HCl (pH 8.0), 150 mM NaCl; elution around 150 kDa
[2] = molecular target: zebrafish Ngly2 (amino acids: 45-663) (zebrafish (Danio rerio)); test: SEC; gel filtration at pH 4.0; elution around 150 kDa

Substance: zebrafish Ngly2 (amino acids: 45-663) (enzyme)
- stoichiometry N [1]: 2
- stoichiometry N [2]: 2
